Measured values as given in the supplement of paper PMC12042874.
± gives the uncertainty stated by the source.

Assay: amyloid nucleation score (Sup35N fusion, yeast selection) (log enrichment); library NNK3; higher = more nucleation; inactive = no reads after selection
Outline: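 Output and input plasmid inserts were sequenced by Illumina after psi-negative yeast carrying Sup35N fused to peptides of 20 random codons had been induced 24 hours with 100 μM copper sulfate and grown 7 days at 30°C on medium lacking adenine and uracil. The nucleation score is the DiMSum log enrichment of output over input reads, centred on the mode score of non-aggregating sequences. Sequences with under 100 input reads were excluded.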

Substance	amyloid nucleation score
TFSNYALNVSAYRVDIFEML	0.979 ± 0.14
TFSPVGMISLYCYGT	-0.065 ± 0.45
TFVNLFIVPGKGQSVTGGCE	1.45 ± 0.13
TFYVLGLDYTWLSATSGDGS	inactive
TGARMVLCIFGIYSMYTLHN	1.99 ± 0.074
TGDRIWTIGFFGEPNGVLKG	inactive
TGMVCNLTWVLYLMLMNRTF	inactive
TGSSTDLSNYNGLGYLLNNS	0.479 ± 0.2
TGVNFGRLLLISRSVLGVC	inactive
TGYPGPIKFRRIFYANYYSF	inactive
THANEGRCYMVSSVMEVSPL	inactive
THESATSYLISGFGIGFIWC	1.49 ± 0.089
THFNGEFWALSTVCMWGGRV	0.06 ± 0.69
THFQEPLSESGDRCLDDGYL	inactive
THHWKFGSNPSFR	inactive
THLSVEFS	inactive
TIACS	inactive
TIASVKLEFALPPSHLPLGV	inactive
TICRCRWGIRPYLALCIHYS	inactive
TIEQCGLS	inactive
TIFLSSRGVILYTVSCYKFV	inactive
TIGFIGWWGVFYDTDWLRI	-0.566 ± 1.4
TIGSAWFGKLGDGLALFGLF	inactive

Substance	amyloid nucleation score
TILWFSSNETFYAGIHRSCP	inactive
TIRYRIQVNSCHESVIAGYT	inactive
TISLHFLGTADKPYLSWVAN	inactive
TITFSWLAYAVGMQPDNNEV	1.26 ± 0.12
TKGTKDRPPYTVVRLQYGNS	inactive
TKNRVYQWMSLSGM	0.828 ± 0.12
TKRCKYCTKGNVQTHTWVAF	0.466 ± 0.23
TKTISGHCPVLMSVFWSMAL	inactive
TKYCSLPHDQDCVHKFITTV	inactive
TLARQWSDP	inactive
TLCSHYYVV	inactive
TLFDRFWVLWNEKWESSGKY	inactive
TLGGEMQFVKMFCLLYFNCG	inactive
TLGLAVFDNSMDRWYEDVKK	inactive
TLGVGP	inactive
TLMGLESVSVYFSVGFLSVY	inactive
TLNIFVVSFNDYWVSVIIKD	2.46 ± 0.066
TLSFCWWRFMLVCRGVGGGR	inactive
TLTYTKYYHFNCNRTLYESV	0.665 ± 0.16
TLVCEDIVYRDLLITSFLYS	0.589 ± 0.087
TLVVMEIIQLLSFSHGPFI	inactive
TLWYSYHINVPYCL	inactive
TLYRGDKTRNFAMGIKLCMT	inactive

Substance	amyloid nucleation score
TMCHGDDLRNHCYSETNSFR	inactive
TMGGNVIV	inactive
TMGVSLHHIKGPFWSVIYCI	0.481 ± 0.32
TMHKGLVVMF	inactive
TMLRFIYSYDAFRR	0.931 ± 0.22
TMNLCS	inactive
TMSGFYYNSFIRYNLAL	inactive
TMVTTNEIT	0.092 ± 0.29
TMYIAHGELGFIRNHLDISR	1.04 ± 0.11
TNLVAIKYLFT	-0.022 ± 0.48
TNMHYMSHYLETTPFTTGMV	inactive
TNPLYYRS	inactive
TNSGGFRMVIYFFR	inactive
TNTSFTIVSYTSYR	0.696 ± 0.27
TNYYFALLGYYHLFSSTGHR	2.66 ± 0.064
TNYYFQNV	inactive
TPCYRFNSRYRMTFM	inactive
TPMGQCAYHEPVNMVKKALR	inactive
TPRQFSDGCISFNKVTINPQ	0.704 ± 0.34
TPYILLG	inactive
TQFISLSGGRTHLSGFLVFG	0.957 ± 0.14
TQGYVFKELAGVSRYTEA	inactive
TQPDLV	inactive

Substance	amyloid nucleation score
TRCGFS	inactive
TRCTGSYNNYG	inactive
TRGLWYQHVDHSTFRLKEST	inactive
TRIFVCVFVCTTPTMHAPIW	0.921 ± 0.23
TRISMSENKVVKREVVATRR	inactive
TRKDDFDLSGCSR	inactive
TRLTL	inactive
TRMDIESGYVLESYSRPSPM	inactive
TRNCGRSGYRL	1.13 ± 0.089
TRNYFNPVSRRGVTVSRGLY	inactive
TRRATGYFHFS	inactive
TRSWCGDMYSHC	inactive
TRTMAVDTVGCSENRDAAGD	inactive
TRVTS	inactive
TRYKELSFNTVSLVRYCAGG	inactive
TSDIAPFRDLLIASA	inactive
TSFWGGALEDSATITLECWF	-0.24 ± 1.3
TSGAANHYLYSSVSWTFFLL	0.764 ± 0.19
TSGDMRAVYGLYREIRLVNT	inactive
TSGSEDLLYGRDVVVYRSGC	inactive
TSPGFYGWMSNSTSSNDIVA	inactive
TSPNYTGPMNSCLRAWLWDR	inactive
TSRRVCLQ	inactive

Substance	amyloid nucleation score
TSRYIGL	inactive
TSSQKDIWQDVYGLLFWAQS	inactive
TSTFARDKVDFAVLSLF	inactive
TSTNNSRKYSSQRRWMHPLG	inactive
TSTRHDGGFMVMWYLLGLTR	inactive
TSTYANKALTVLE	inactive
TSVGYNRIMFQERNIHPELN	inactive
TTRLNFENVNVTLLNYKSMG	1.19 ± 0.069
TTRRVGCLMGFLVDFRIKSC	inactive
TTSVIAGLW	inactive
TVEVNCCYLEGNVV	1.03 ± 0.089
TVHTNLCAMLMFTGYF	inactive
TVLCFSACQENFSSSLRRLY	inactive
TVRWDVSLMFMRPMMYGEPK	-0.13 ± 1.1
TVTHALLSYKCHNG	inactive
TVTSSFATLNQVYGPHVFVN	inactive
TVVLSWPMYAECKFSCICMT	1.38 ± 0.1
TWCSIMDLLVQLRVRNLFGK	inactive
TWDMSLT	inactive
TWEVYTMCIRNGGVLGLFIF	inactive
TWFTSFYCFSNNAYLYF	1.8 ± 0.066
TWINFFGTYILWPNFNYSTR	2.66 ± 0.064
TWMKMSTEWRTLDLDCWNSS	1.34 ± 0.13

Substance	amyloid nucleation score
TWSGQGHR	inactive
TWSWVVAASVKLISFKL	inactive
TYCERKFTTSGTSYTSQKYF	inactive
TYFTFSREVKMMVHTNCCLL	0.594 ± 0.2
TYFVVDGYVGMFCLIGDISS	2.69 ± 0.052
TYLVMS	inactive
TYMCQVFNILDSQKYCYMRR	inactive
TYPSEVYFIMFAMFSSTCWS	inactive
TYPTYRVWVEEQCRLYDTNR	inactive
TYQVILSFYDLWFGRSAYCQ	inactive
TYRLAVLS	inactive
TYVIFCYTVSHDDSHRTLYN	2.19 ± 0.084
TYVRHFVIRFMREGRSLGGR	inactive
TYVVMGFRCETFRIHNGLRR	inactive
TYYNHIRLVYLIGAKRWEEL	inactive
VACRFHMCLWLGRVLDYAKN	1.1 ± 0.14
VAFDIINRQNIINEWGCWID	inactive
VAFVNKCFSD	inactive
VAKFYRQ	inactive
VAKHNAR	inactive
VAKLKRTWTVWLVIYSRKSW	inactive
VAQFDRNLKPKVNYAVNELQ	inactive
VAWAASARRHMYIPDRDSCA	inactive

Substance	amyloid nucleation score
VCGAVSKPLWIRCTVDPRGR	inactive
VCIPYMVVVFISSIP	1.72 ± 0.11
VCITRMQVRLPTYLRVQSKA	inactive
VCLFICLNDDFLIRRPDCLS	2.08 ± 0.051
VCRFYIGFTYWLSCC	inactive
VCWSHNPRPTDDY	inactive
VCYNLCRKIPDSLSKIPDRR	inactive
VDKLGSYPMPLVLGVVNTYQ	inactive
VDKQPDLIAHRMWTKVG	inactive
VDTKFSISYTGKTC	inactive
VDVSRTFALCHRDLPMMP	inactive
VDWKVAR	inactive
VDYSRALTAYVCIPANFSVP	inactive
VECNIEIHNISSFPSTEKNQ	2.41 ± 0.06
VEHHDFSRSSSAYTRVL	inactive
VELTC	inactive
VEMGDSVRSRGYSISVFLRK	inactive
VERKNVLFRYHAVGFVLGDV	inactive
VERSSLVEWSCDRVSKWYFV	0.298 ± 0.74
VEYLFVNCWSTE	inactive
VFDYADDYYTVNGTVLSPAE	-0.283 ± 0.32
VFEAAALVCNCGTWDRGLND	1.79 ± 0.1
